Data reported in patent US20240392013A1 (STELEXIS THERAPEUTICS, published 2024).
Numbering of substitutions follows the chain as printed.

Legend:
[1] = biological target: T1, IL1RAP on HEK-Blue IL1β / HEK-Blue IL33 reporter cells (UniProt Q9NPH3 21-570, limits assumed); assay: cell-based or functional assay
T1 sequence (looked up): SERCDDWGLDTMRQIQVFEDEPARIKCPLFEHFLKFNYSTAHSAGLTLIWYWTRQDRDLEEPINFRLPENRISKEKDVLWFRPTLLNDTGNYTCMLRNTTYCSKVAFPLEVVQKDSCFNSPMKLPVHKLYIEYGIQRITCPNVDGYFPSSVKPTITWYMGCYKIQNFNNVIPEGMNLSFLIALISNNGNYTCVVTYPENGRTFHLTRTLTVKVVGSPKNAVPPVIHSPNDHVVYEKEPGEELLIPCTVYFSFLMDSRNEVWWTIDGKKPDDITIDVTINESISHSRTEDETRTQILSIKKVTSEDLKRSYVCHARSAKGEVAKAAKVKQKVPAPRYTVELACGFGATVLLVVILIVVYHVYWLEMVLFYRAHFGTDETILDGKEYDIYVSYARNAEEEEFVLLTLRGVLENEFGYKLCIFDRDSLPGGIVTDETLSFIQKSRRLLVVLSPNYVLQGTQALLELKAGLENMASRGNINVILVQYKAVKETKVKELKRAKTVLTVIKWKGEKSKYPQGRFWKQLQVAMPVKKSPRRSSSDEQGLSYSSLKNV

[2] = biological target: T1, IL1RAP on HEK-Blue IL1β / HEK-Blue IL33 …; assay: cell-based or functional assay; remark: listed apart in the source
[3] = biological target: T2, recombinant human IL1RAP protein, extracellular domain His-tagged (Sino Biological, Cat #10121-H08H) (human, UniProt Q9NPH3 21-367); assay: cell-free ELISA, human IL1RAP coated at 1 µg/ml
T2 construct: extracellular domain; Bought protein; The Octet analyte is printed as huIL1RAP-His (Sino Biological, lot MB08MA1301) without a catalogue number; also called huIL1RAP-His; hIL1RAP; not shown: His tag
T2 sequence (looked up): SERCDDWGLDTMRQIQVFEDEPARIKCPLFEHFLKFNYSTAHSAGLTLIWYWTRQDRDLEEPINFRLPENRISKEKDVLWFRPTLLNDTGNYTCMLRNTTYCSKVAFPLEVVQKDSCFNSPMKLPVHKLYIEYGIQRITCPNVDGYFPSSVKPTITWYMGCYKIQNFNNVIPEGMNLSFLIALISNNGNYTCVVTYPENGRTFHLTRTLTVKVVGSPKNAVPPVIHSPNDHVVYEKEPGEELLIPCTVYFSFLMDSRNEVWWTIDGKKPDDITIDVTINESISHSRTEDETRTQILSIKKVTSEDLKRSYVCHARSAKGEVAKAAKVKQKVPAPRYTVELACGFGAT
Procedure: Recombinant human or mouse IL1RAP proteins (Sino Biological, Beijing, China; Cat #10121-H08H and Sino Biological, Cat #52657-M08H respectively) were diluted in PBS, pH 7.4 at concentration of 1 μg/ml, coated on high-binding 384-well clear plates and incubated overnight at 4° C. Following, plates were washed 3× with 0.05% Tween-20 in PBS, pH 7.5 and then blocked with 1% BSA in PBS for 1 hour at room temperature. After 3× washes, wells were incubated with each antibody at the highest concentration of 100 nM followed by seven serial half log dilutions (in 1% BSA and 0.05% Tween-20 in PBS) for 1 hour at room temperature. Plates were then washed 3× and incubated with […] detection antibody (Medna, TX, USA; Cat #D8212, 0.5 μg/ml diluted in 0.02% Tween-20 in PBS). After 5× washes, Supersignal ELISA Pico substrate (Thermofisher, MA, USA; Cat #37069) was applied to wells and chemiluminescent signal was read on Sprectramax L for 200 ms/well. Similarly, detection with specific κ and λ antibodies was conducted to define light chain isotyping.

B1: STLX2012 (antibody, V domains shown)
VH: QVQLLQSGAEVKKPGSSVKVSCKASGGTFSIYAIDWVRQAPGQGLEWMGGIIPIFGTANSAQKFQGRVTITADKSTSTAYMELSSLRSEDTAVYYCARNGATSDAFDMWGQGTMVTVSS
VL: EIVLTQSPGTLSLSPGERATLSCRASLSVSSNYLAWFQQRPGQAPRLLIHGVSRRATGIPDRFSGSGSGTDFTLTISRLEPEDFAVYYCQQYGSSPLTFGGGTKVEIK
notes: Purified from hybridoma of immunized Alivamab mice; intact IgG; captured on anti-mouse IgG Fc sensors in Octet; kappa light chain; also called 74804_12A21B
[1]
  IC50, HEK-BlueIL1β NFκB Reporter Assay: 1.31e-09 M (implied; unit not printed)
  Max % Inhibition at 200 nM, HEK-BlueIL1β NFκB Reporter Assay: 100%
[2]
  Max % Inhibition at 200 nM, HEK-BlueIL33 NFκB Reporter Assay: 95%
[3]
  EC50: 0.985 nM

B2: STLX2043 (antibody, V domains shown)
VH: B1 VH with A58E, K63N, V68I, S77N, M108I, S118F
VL: B1 VL with H50Y
notes: Purified from hybridoma of immunized Alivamab mice; intact IgG; captured on anti-mouse IgG Fc sensors in Octet; kappa light chain; also called 74804_43F04A
[1]
  IC50, HEK-BlueIL1β NFκB Reporter Assay: 2.29e-09 M (implied; unit not printed)
  Max % Inhibition at 200 nM, HEK-BlueIL1β NFκB Reporter Assay: 99%
[2]
  IC50, HEK-BlueIL33 NFκB Reporter Assay: 9.62e-09 M (implied; unit not printed)
  Max % Inhibition at 200 nM, HEK-BlueIL33 NFκB Reporter Assay: 85%
[3]
  EC50: 1.04 nM
